# Source: US20220112288A1 (published 2022)
# Molecular target: T1, Recombinant human CD4 (R&D Systems, Cat. 10327-CD) (human, UniProt P01730 26-390, limits assumed)
# T1 construct: Soluble analyte in the Octet assay
# Assay: BLI Octet, mAb on anti-mouse Fc sensor, CD4 100/50/25 nM, 1:1 global fit;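 note: antibodies loaded at 10 µg/mL, an unrelated mouse-derived antibody served as internal reference control, association and dissociation phases fitted after Savitzky-Golay smoothing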
Kd,Response,koff,kon,Binder
13 nM,0.27,0.0017 s⁻¹,130000 M⁻¹ s⁻¹,"75110_01D24A (antibody, V domains shown, Tested as antibody purified from AlivaMab Mouse hybridoma supernatant (captured by anti-mouse IgG Fc)) VH: QVQLQQWGAGLLKPSETLSLTCAVYGGSFSGYYWSWIRQPPGKGLEWIGEINHSGSTNYNPSLKSRVTISVDTSENQFSLKLNSVTAADTAVYYCARLVNWFDPWGQGTLVTVSS VL: EIQMTQSPSSVSASVGDRVTITCRASQDISNWLAWYQQKPGKAPNLLIFAASSLQTGVPSRFSGSGSGTDFTLTISSLQPDDFATYYCQQANSFPYSFGQGTNLGIK"
5.5 nM,0.22,0.00076 s⁻¹,140000 M⁻¹ s⁻¹,"75110_03L12A (antibody, V domains shown, Tested as antibody purified from AlivaMab Mouse hybridoma supernatant (captured by anti-mouse IgG Fc)) VH: QVQLQQWGAGLLKPSETLSLTCAVYGGSFSGYYWSWIRQPPGKGLEWIGEINHSGSTNYNPSLKSRVTISVDTSENQFSLTLISVTAADTAVYYCVRLINWFDPWGQGTLVTVSS VL: DIQMTQSPSSVSASVGDRVTITCRASQDISNWLAWYQQKPGKAPKLLIFAASSLQSGVPSRFSGSGSGTDFTLTISSLQPDDFATYYCQQANSFPYTFGQGTNLGIK"
14 nM,0.36,0.0014 s⁻¹,100000 M⁻¹ s⁻¹,"75110_01A06A (antibody, V domains shown, Tested as antibody purified from AlivaMab Mouse hybridoma supernatant (captured by anti-mouse IgG Fc)) VH: EVQLVESGGGLVQPGGSLRLSCAASGFTFSSYWMSWVRQAPGKGLEWVANINEDGNEKYYVDSVKGRLTISRDNAKNSLYLQMNSLRAEDTAVYFCAREGGQWLSLDYWGQGALVTVSS VL: DIQMTQSPSSVSASVGDRVSITCRASQGISSWLAWYQQKPGKAPKILIYGASSLQSGVPSRFSGSGSGTDFTLTISSLQPEDFATYYCQQANSFPWTFGQGTKVEIK"
24 nM,0.13,0.0047 s⁻¹,200000 M⁻¹ s⁻¹,"75110_01C18A (antibody, V domains shown, Tested as antibody purified from AlivaMab Mouse hybridoma supernatant (captured by anti-mouse IgG Fc)) VH: EVQLVESGGGLIQPGGSLRLSCAASGFTVSSNYMNWVRQAPGKGLEWVSVIYAGDNTYSADSVKGRFTISRDNSNNTLCLQMNSLRAEDTAVYYCAREGGTTGAFDIWGQGTMVTVSS VL: DIQMTQSPSSVSASVGDRVTITCRASQGINSWLAWYQQKPGKAPKLLIYAASSLQSGVPSRFSGSGSGTDFTLTISSLQPEDFATYYCQQGNSFPYTFGQGTKLEIK"
11 nM,0.25,0.0017 s⁻¹,160000 M⁻¹ s⁻¹,"75110_02N15A (antibody, V domains shown, Tested as antibody purified from AlivaMab Mouse hybridoma supernatant (captured by anti-mouse IgG Fc)) VH: EVQLVESGGGLVQPGGSLRLSCAASGFTFSSYWMSWVRQAPGKGLEWVANINEDGNEKYYVDSVKGRFTISRDNAKNSLFLQMNSLRAEDTAVYFCAREGGQWLALDHWGQGALVTVSS VL: DIQMTQSPSSVSASVGDRVTITCRASQGISSWLAWYQQKPGKAPKFLISGASSLQSGVPSRFSGSGSGTDFTLTISSLQPEDFATYYCQQANSFPWTFGQGTKVEFK"
110 nM,0.1,0.0042 s⁻¹,39000 M⁻¹ s⁻¹,"75110_04K10A (antibody, V domains shown, Tested as antibody purified from AlivaMab Mouse hybridoma supernatant (captured by anti-mouse IgG Fc)) VH: EVQLVESGGGLVQPGGSLRLSCAASGFTFSSYWMSWVRQAPGKGLEWVANINQDGSEKYYVDSVKGRFTISRDNAKNSLYLQLNSLRAEDTAMYYCAREGGQWLSLDYWGQGTLVTVSS VL: DIQMTQSPSSVSASVGDRVTITCRASQGISSWLAWYQQKPGKAPKVLIYGVSSFQSGVPSRFSGSGSGTDFILTISSLQPEDFATYYCQQANSFPWTFGQGTKVEIK"
10 nM,0.05,0.0008 s⁻¹,78000 M⁻¹ s⁻¹,"75110_03D16A (antibody, V domains shown, Tested as antibody purified from AlivaMab Mouse hybridoma supernatant (captured by anti-mouse IgG Fc)) VH: EVQLVESGGGLVQPGGSLRLSCAASGFTFSSYWMSWVRQAPGKGLEWVANINQDGGEKYYVDSVKGRFTISRDNAKNSLYLQMNSLRAEDTAVYYCVREGGQWLALDYWGQGTLVTVSS VL: DIQMTQSPSSVSASVGDRVTITCRASQGISSWLTWYQQKPGKAPKFLIYAASSLQSGVPSRFSGSGFGTDFTLTISSLQPEDFATYYCQQANSFPWTFGQGTKVEIK"

# Molecular target: T2, Recombinant human CD4 (R&D Systems, Cat. 10327-CD) (human, UniProt P01730 26-390, limits assumed)
# T2 construct: Bought protein; also called huCD4
# Assay: BLI (Octet Red384), purified antibody on anti-mouse Fc sensors, human CD4 100/50/25 nM, global 1:1 fit;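 note: antibodies loaded at 10 µg/mL, curves fitted across association and dissociation phases, with an unrelated mouse-derived antibody serving as internal reference control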
Kd,Response,koff,kon,Binder
0.38 nM,0.19,0.00019 s⁻¹,500000 M⁻¹ s⁻¹,"75110_14G10A (antibody, V domains shown, Tested as antibody purified from AlivaMab Mouse Kappa hybridoma (human V regions, kappa light chain, mouse Fc captured by anti-mouse Fc sensors)) VH: EVQLVESGGGLVKPGGSLRLSCAASGFTFSSYSMNWVRQAPGKGLEWVSFISSSSSYIYYADSVKGRFTISRDNAKNSLYLQMNSLRAEDTAVYYCARERGDDYGDYEGAFDIWGQGTMVTVSS VL: not shown"
< 0.001 nM,0.2,< 1e-07 s⁻¹,84000 M⁻¹ s⁻¹,"75110_07N04A (antibody, V domains shown, Tested as antibody purified from AlivaMab Mouse Kappa hybridoma (human V regions, kappa light chain, mouse Fc captured by anti-mouse Fc sensors)) VH: QVQLQESGPGLVKPSETLSLTCSVSGVSSTSFYWSWIRQPAGKGLDWIGRIYTSGSTNYNPSLKSRVTMSVDTSKNQFSLKLSSVTAADTAVYYCARDPGYSDAFAIWGQGTMVTVSS VL: not shown"
10 nM,0.14,0.0017 s⁻¹,160000 M⁻¹ s⁻¹,"75110_14I16A (antibody, V domains shown, Tested as antibody purified from AlivaMab Mouse Kappa hybridoma (human V regions, kappa light chain, mouse Fc captured by anti-mouse Fc sensors); also called 75110_14116A) VH: QVQLQESGPGLVKPSETLSLTCTVSNGSISSYYWSWIRQSAGKGLEWIGRIYTSGSTNYNPSLKSRVTMLVDTSKNQFSLKLSSVTAADTAVYYCARDREDYYYYGMDVWGQGTTVTVSS VL: DIQMTQSPSSLSASVGDRVTITCQASHDISNYLNWYQQKPGKAPKLLLYYASNLETGVPSRFSGSGSGTDFTFTITSLQPEDIGTYSCQQYDNLPLTFGGGTKVEIK"
3 nM,0.17,0.00029 s⁻¹,95000 M⁻¹ s⁻¹,"75110_13P21A (antibody, V domains shown, Tested as antibody purified from AlivaMab Mouse Kappa hybridoma (human V regions, kappa light chain, mouse Fc captured by anti-mouse Fc sensors)) VH: QVQLQQWGAGLLKPSETLSLTCAVSGGSFSGYYWSWIRQPPGKGLEWIGEINHSGSTNCNPSLKSRVTISVDTSNNQFSLKLSSVTAADTAVYYCARVLNYFDYWGQGTLVTVSS VL: DIQMTQSPSSVSASVGDRVTITCRASPDIANWLAWYQQKPGKAPELLIYAASSLQSGVPSRFSGSGSGTDFTLTISSLQPEDFATYFCQQANSFPLTFGGGTKVESK"
1.8 nM,0.22,0.00021 s⁻¹,110000 M⁻¹ s⁻¹,"75110_12K21A (antibody, V domains shown, Tested as antibody purified from AlivaMab Mouse Kappa hybridoma (human V regions, kappa light chain, mouse Fc captured by anti-mouse Fc sensors)) VH: QVQLQQWGAGLLKPSETLSLTCAVSGGSFSGYYWSWIRQPPGKGLEWIGEINHSGSTNCNPSLKSRVTISVDTSNNQFSLKLSSVTAADTAVYYCARVLNYFDYWGQGTLVTVSS VL: DIQMTQSPSSVSASVGDRVTITCRASPDIANWLAWYQQKPGKAPELLIYAASSLQSGVPSRFSGSGSGTDFTLTISSLQPEDFATYFCQQANSFPLTFGGGTKVESK"
11 nM,0.21,0.0013 s⁻¹,120000 M⁻¹ s⁻¹,"75110_13C13A (antibody, V domains shown, Tested as antibody purified from AlivaMab Mouse Kappa hybridoma (human V regions, kappa light chain, mouse Fc captured by anti-mouse Fc sensors)) VH: QVQLQQWGAGLLKPSETLSLTCAVSGGSFSGYYWSWIRQPPGKGLEWIGEINHSGSTNCNPSLKSRVTISVDTSKNQFSLKLSSVTAADTAMYYCARVLNFFDYWGQGTLVTVSS VL: DIQMTQTPSSVSASVGDRVTITCRASPGISNWLAWYQQKPGKAPELLIYAASSLQSGVPSRFSGSGSGTDFTLTISSLQPEDFATYFCQQANSFPLTFGGGTKVESK"
6.6 nM,0.12,0.00078 s⁻¹,120000 M⁻¹ s⁻¹,"75110_08A13A (antibody, V domains shown, Tested as antibody purified from AlivaMab Mouse Kappa hybridoma (human V regions, kappa light chain, mouse Fc captured by anti-mouse Fc sensors)) VH: EVQLVESGGGLVQPGGSLRLSCAASGFIFSSYWMSWVRQAPGKGLEWVANIKQDGSEKYYMDSVKGRFTISRDNAKNSLYLQMNSLRAEDTAVYYCARDNSYYYYGMDVWGQGTTVTVSS VL: AIQMTQSPSSLSASVGDRVTITCRASQGIRDDLGWYQQKPGKAPKLLIFAASSLQSGVPSSFSGSGSGTDFTLTISSLQPEDFATYYCLHHYNYPYTFGQGTKLEIK"
3.1 nM,0.2,0.00049 s⁻¹,160000 M⁻¹ s⁻¹,"75110_10K21A (antibody, V domains shown, Tested as antibody purified from AlivaMab Mouse Kappa hybridoma (human V regions, kappa light chain, mouse Fc captured by anti-mouse Fc sensors)) VH: EVQLVESGGGLVQPGGSLRLSCAASGFTFSSYWMTWVRQAPGKGLEWVANIKQDGSEKYYVDSVKGRFTISRDNAKNSLYLQMNSLRAEDTAVYYCVRDRYDALDIWGQGTMVTVSS VL: AIQMTQSPSSLSASVGDRVTITCRASQGIRNDLNWYQQKPGKAPKLLIYAASSLQSGVPSRFSGSGSGTDFTLTISSLQAEDFATYYCLKDYNYPYTFGQGTKLEIK"
14 nM,0.16,0.0012 s⁻¹,86000 M⁻¹ s⁻¹,"75110_13P22A (antibody, V domains shown, Tested as antibody purified from AlivaMab Mouse Kappa hybridoma (human V regions, kappa light chain, mouse Fc captured by anti-mouse Fc sensors)) VH: QVQLQQWGAGLLKPSETLSLTCAAYGGSFSGYYWSWIRQSPGKGLEWIGEINQSGNTNYNPSLKSRVTISADTSKNQFSLKLSSVTAADTAVYYCARVLNWFDYWGQGILVTVSS VL: DIQMTQSPSSVSASVGDRVTITCRASQGISDWLAWYQQKSGKAPDLLIFAASSLQSGVPSRFSGSGSGTDFTLTISSLQPEDFATYYCQQANSFPYTFGQGTKLEIK"
8.4 nM,0.22,0.0014 s⁻¹,170000 M⁻¹ s⁻¹,"75110_08F20A (antibody, V domains shown, Tested as antibody purified from AlivaMab Mouse Kappa hybridoma (human V regions, kappa light chain, mouse Fc captured by anti-mouse Fc sensors)) VH: QVQLQESGPGLVKPSETLSLTCSVSGGSISTYYWSWIRQPAGKGLEWIGRICTTENTNYNPSLKSRVTMSIDSSKNQFSLKLSSVTAADTAVYYCARDLERLNYYGMDVWGQGATVTVSS VL: DIQMTQSPSSLSASVGDRVTITCQASQDISKYLNWYQQKPGIAPKLLIYDASNLETGVPSRFSGSGSGTDFTFTISSLQPEDFATYYCQQYDSLPITFGQGTRLEIK"
11 nM,0.17,0.0014 s⁻¹,130000 M⁻¹ s⁻¹,"75110_14N19A (antibody, V domains shown, Tested as antibody purified from AlivaMab Mouse Kappa hybridoma (human V regions, kappa light chain, mouse Fc captured by anti-mouse Fc sensors)) VH: QVQLQESGPGLVKPSETLSLTCTVSGGSISRYYWSWIRQPAGKGLEWIGRICTSENPNYNPALKSRVTMSVDTSKNQFSLKLSSVTAADTAVYYCARELERLNYYGMDVWGQGTTVTVSS VL: DIQMTQFPSSLSASVGDRVTITCQASQDISNYLNWYQQKPGKAPKLLIYDASNLESGVPSRFSGRGSGTDFTFTISSLQPEDFATFYCQQYDTLPITFGQGTRLEIK"
20 nM,0.15,0.0035 s⁻¹,180000 M⁻¹ s⁻¹,"75110_08G08A (antibody, V domains shown, Tested as antibody purified from AlivaMab Mouse Kappa hybridoma (human V regions, kappa light chain, mouse Fc captured by anti-mouse Fc sensors)) VH: QVQLQESGPGLVKPSETLSLTCSVSGGSISTYYWSWIRQPAGKGLEWIGRICTTENTNYNPSLKSRVTMSIDSSKNQFSLKLSSVTAADTAVYYCARDLERLNYYGMDVWGQGATVTVSS VL: DIQMTQSPSSLSASVGDRVTITCQASQDISNYLNWYQQKPGIAPKLLIYDASNLETGVPSRFSGSGSGTDFTFTISSLQPEDIATYYCQQYDSLPITFGQGTRLEIK"
